Positions count from the first letter of the chain named. In names and notes the source's numbering stands.
T1: fibromodulin (bovine, UniProt P13605 19-376, glycosylated (N-linked oligosaccharides including keratan sulphate), as isolated)
T1 construct: Isolated from tissue; coated on microtitre plates at 10 ug/ml; also called FMOD; untreated (glycosylated) FMOD
T1 sequence (looked up): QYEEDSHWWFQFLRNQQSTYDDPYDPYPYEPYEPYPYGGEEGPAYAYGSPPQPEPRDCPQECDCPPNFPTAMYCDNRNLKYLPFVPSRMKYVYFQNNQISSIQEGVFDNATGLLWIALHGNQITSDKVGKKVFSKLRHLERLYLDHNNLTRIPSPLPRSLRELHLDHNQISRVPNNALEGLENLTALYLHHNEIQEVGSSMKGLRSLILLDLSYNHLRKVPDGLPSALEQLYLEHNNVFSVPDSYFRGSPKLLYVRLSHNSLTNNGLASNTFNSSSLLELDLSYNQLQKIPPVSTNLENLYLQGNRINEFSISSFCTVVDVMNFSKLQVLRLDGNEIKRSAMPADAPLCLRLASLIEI

T2: deglycosylated FMOD (bovine, UniProt P13605 19-376, N-linked oligosaccharides (including keratan sulphate) removed with N-glycosidase F)
T2 construct: The same polypeptide as FMOD, without its N-linked glycans; also called N-glycosidase F-treated FMOD
T2 sequence (looked up): T1 sequence (looked up)

T3: C-reactive protein (UniProt P02741 19-224)
T3 construct: Bought; Coated on microtitre plates at 10 ug/ml; also called CRP; recombinant CRP
T3 sequence (looked up): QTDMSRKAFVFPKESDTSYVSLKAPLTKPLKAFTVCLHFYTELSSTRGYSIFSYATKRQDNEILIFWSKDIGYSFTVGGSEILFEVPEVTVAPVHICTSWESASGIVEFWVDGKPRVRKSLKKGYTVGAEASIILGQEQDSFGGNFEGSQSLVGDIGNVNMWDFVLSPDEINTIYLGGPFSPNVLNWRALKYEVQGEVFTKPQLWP

B1: FHCCP6-8(Y384) (other)
chain: GTLKPCDYPDIKHGGLYHENMRRPYFPVAVGKYYSYYCDEHFETPSGSYWDHIHCTQDGWSPAVPCLRKCYFPYLENGYNQNYGRKFVQGKSIDVACHPGYALPKAQTTVTCMENGWSPTPRCIRVKTCSKSSIDIENGFISESQYTYALKEKAKYQCKLGYVTADGETSGSITCGKDGWSAQPTCI
modifications: in some assays biotinylated with EZlink N-hydroxysuccinimide-LC Biotin (sites not given)
notes: Made by site-directed mutagenesis (H384Y) of FHCCP6-8(H384); also called FHCCP68 (Y384 allotype); Y384 variant
B2: FHCCP6-8(H384) (other)
chain: B1 chain with Y83H
modifications: in some assays biotinylated with EZlink N-hydroxysuccinimide-LC Biotin (sites not given)
notes: Used unlabelled (detected with a goat polyclonal anti-FH antibody) or biotinylated; also called FHCCP68 (H384 allotype); H384 variant

Tests used:
fibromodulin = target: T1, fibromodulin; assay: plate assay: FMOD coated on microtitre wells at 10 ug/ml, biotinylated protein in fluid phase, detection with streptavidin peroxidase kit, A490, background subtracted
Method: FIG. 12: Binding of FHCCP6-8(H384), FHCCP6-8(Y384) and full length FH to FMOD. A. FMOD was coated in microtitre plate wells at a concentration of 10 μg/ml. BSA was used as the negative coating control. FHCCP6-8(H384) and FHCCP6-8(Y384) recombinant proteins or full length FH were incubated in fluid phase and bound protein was detected with a specific polyclonal antibody. B. FMOD was coated in microtitre plate wells as described for A. Biotinylated versions of FHCCP6-8(H384) and FHCCP6-8(Y384) were incubated in the wells and bound protein was detected with a streptavidin peroxidase kit. C. Untreated (glycosylated) and N-glycosidase F-treated FMOD were assessed for binding full length FH in a microtitre plate based binding assay. Bound protein was detected with a specific polyclonal antibody. […]
CRP or FMOD was coated overnight at 4° C. onto microtiter plates (Maxisorp, Nunc) at a concentration of 10 μg/ml in 75 mM sodium carbonate buffer, pH 9.6. […] The amount of bound protein was assessed using a goat polyclonal anti-FH antibody (Quidel, Cat # A312) followed by HRP-labeled anti-goat secondary antibodies (Dako) and the OPD development kit (Dako). Detection of biotinylated protein was performed using a StreptABComplex/HRP-kit from Dako, and in both cases the absorbance at 490 nm was measured to quantify protein binding.

deglycosylated FMOD = target: T2, deglycosylated FMOD; assay: microtitre plate assay, deglycosylated against untreated FMOD coated
C-reactive protein = target: T3, C-reactive protein; assay: plate assay: CRP coated on microtitre wells (10 ug/ml), unlabelled protein in fluid phase, detection with goat polyclonal anti-FH antibody and HRP secondary, A490, background subtracted
Method: CRP or FMOD was coated overnight at 4° C. onto microtiter plates (Maxisorp, Nunc) at a concentration of 10 μg/ml in 75 mM sodium carbonate buffer, pH 9.6. Wells treated only with coating buffer or 1% (w/v) BSA (Sigma) in coating buffer (for the assays involving FMOD) were used as negative controls. Between each step the wells were washed extensively with 50 mM Tris-HCl, 150 mM NaCl, 0.1% (v/v) Tween 20, pH 7.5. All wells were blocked with 1% (w/v) BSA (Sigma) in phosphate buffered saline (Invitrogen) for 1 hour at 37° C. FHCCP6-8(H384) and FHCCP6-8(Y384) were added at varrying concentrations in the binding buffer (50 mM HEPES, 100 mM NaCl, 2 mM CaCl₂, pH 7.4); full length FH served as a positive control. In the experiments with FMOD, 50 μg/ml BSA was included in the binding buffer. The amount of bound protein was assessed using a goat polyclonal anti-FH antibody (Quidel, Cat # A312) followed by HRP-labeled anti-goat secondary antibodies (Dako) and the OPD development kit (Dako). Detection of biotinylated protein was performed using a StreptABComplex/HRP-kit from Dako, and in both cases the absorbance at 490 nm was measured to quantify protein binding.

| Binder | binding result (fibromodulin) | binding result (deglycosylated FMOD) | EC50 (read off the curve) (C-reactive protein) |
| --- | --- | --- | --- |
| B1 | binds | binds | ~1 µg/mL |
| B2 | binds | binds | – |

— US20080171343A1 (UNIVERSITY OF MANCHESTER, published 2008)
